The values below come from article PMC5285506.

The subject of this data set is T1, Rob (Staphylococcus aureus FK300 (rsbU-repaired NCTC8325-4 derivative)), ORF:92c4d64d.
T1 sequence: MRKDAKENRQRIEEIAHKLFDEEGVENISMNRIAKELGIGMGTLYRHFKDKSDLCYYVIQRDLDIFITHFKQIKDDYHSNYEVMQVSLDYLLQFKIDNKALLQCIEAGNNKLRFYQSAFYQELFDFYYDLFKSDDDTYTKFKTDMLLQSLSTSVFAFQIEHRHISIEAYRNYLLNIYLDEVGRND
Description: EMSA. The conditions noted are these: 10 mM HEPES pH 8.0, 60 mM KCl, 4 mM MgCl2, 0.1 mM EDTA, 0.1 mg/ml BSA, 0.25 mM DTT, 5% glycerol, 1 ug salmon sperm DNA and 1 ug poly(dI-dC) per 20 ul, room ….

“TTGCAATTCCTTTACCTACCTTTCGTTAGTTAGGTTGTAAGCCATATGGTAATTGATAGTATTTTAATTTGCAATAGATT (double strand) [SHORT-2]”: the binding entry is reported as “no binding”.

For “ACAAATATTTCCGTTTAATTATAACAACAATCTATTGCAAATTAAAATACTATCAATTACCATATGGCTTACAACCTAACTAACGAAAGGTAGGTAAAGGAATTGCAA (double strand) [SHORT-1 (108 bp)]”, the binding entry is “binds”.
